This is an account of results in patent publication US20220194987A1.

The target in assay [1] is human BKα channel ZERO isoform (human) (UniProt Q12791). Briefly: cell-based or functional assay.
The target is the same in assay [2]. Briefly: phagemid display panning, positive selection on HEK293 cells expressing human BKα ZERO; enrichment over the theoretical frequency in the library.

Positions of bridges follow the written chain, without caps; N, C: chain ends. No end group written: not given here.

For CARGVYRVC (disulfide 1-9) [LS1], the probability of opening, combination of pskan1 and pskan4, 10 microM, outside-out patches in assay [1] turned out to be 1.6 fold.
In assay [1], CRRGLVQVC (disulfide 1-9; also: TFA salt) [LS3] registered a suppression of channel openings (patch clamp, HEK293 cells) (fraction of openings suppressed) of 0.67. For the same molecule, the fold enrichment of its motifs in the phagemid panning in assay [2] is more than 1000 fold.
Take CPPGRGAVC (disulfide 1-9) [LS4]: in assay [1], the probability of opening, combination of pskan1 and pskan4, 10 microM, outside-out patches is 1.6 fold.
